In patent US10538591B2, “Anti-fibulin-3 antibodies and uses thereof” (THE BRIGHAM AND WOMEN'S HOSPITAL, INC., priority 2014, dated 2020):

Assays:
fibulin-4 = target: T1, fibulin-4 (Homo sapiens, UniProt O95967); assay: Cross-reactivity against homologous fibulin-4; assay type: binding
T1 sequence (O95967 24-443): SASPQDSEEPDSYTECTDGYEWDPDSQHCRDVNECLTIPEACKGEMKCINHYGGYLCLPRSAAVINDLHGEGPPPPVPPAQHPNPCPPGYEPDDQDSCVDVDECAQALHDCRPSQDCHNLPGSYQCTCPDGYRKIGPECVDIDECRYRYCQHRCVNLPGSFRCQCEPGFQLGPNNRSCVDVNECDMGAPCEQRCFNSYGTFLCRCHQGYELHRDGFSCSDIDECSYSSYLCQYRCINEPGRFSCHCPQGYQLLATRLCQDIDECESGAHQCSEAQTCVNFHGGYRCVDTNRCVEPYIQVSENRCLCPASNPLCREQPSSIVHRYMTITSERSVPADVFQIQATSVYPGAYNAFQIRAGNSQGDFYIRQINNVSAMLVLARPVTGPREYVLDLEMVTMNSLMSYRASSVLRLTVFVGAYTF

normal adult human brain = assay: Immunohistochemistry of normal adult human brain sections; settings: anti-Fib3/911 10 μg/ml, mAb428.3C11 40 μg/ml, mAb3-5 5 μg/ml
Procedure: Frozen sections of human primary glioblastoma and normal adult human brain were fixed in ethanol/acetate buffer and processed for immunohistochemistry with the following anti-fibulin-3 antibodies: rabbit polyclonal anti-Fib3/911 (10 μg/ml), mouse monoclonal anti-fibulin-3 mAb428.3C11 (40 μg/ml), and a commercial mouse monoclonal antibody against human fibulin-3 (mAb3-5, 5 μg/ml, Santa Cruz Biotechnology). […] Both in-house generated antibodies show stronger staining in the tumor parenchyma compared to the commercial antibody. In all cases, staining is particularly intense around tumor blood vessels. […] Sections were counterstained to identify endothelial markers and cell nuclei by staining with anti-CD31 and DAPI respectively. (Data not shown).

[1] = system: Notch signaling induced by fibulin-3; assay: Notch reporter in ARPE19 retinal pigmented epithelial cells; assay type: cell-based, human; settings: 100 μg/ml, 0, 2, 4, 6 and 24 h
Procedure: Cells were co-transfected with plasmids carrying fibulin-3 cDNA (Fib3 OE) or a control cDNA (Control) and incubated in serum-free conditions for 24 h (FIG. 18). The following day mAb428.3C11 (100 μg/ml) was added to the cultures and Notch (left panel) or NF-kB (right panel) signaling activities were measured after 0, 2, 4, 6, and 24 h. […] The inhibitory effect caused by the antibody on control reporter signaling (black dots) may have been caused by blocking of endogenous fibulin-3 that is highly expressed by ARPE19 cells.

purified human fibulin-3 = target: T2, purified human fibulin-3 (Homo sapiens, UniProt Q12805); assay: Western blot and dot-blot detection of fibulin-3; assay type: binding
T2 construct: purchased ORIGENE
T2 sequence (Q12805 18-493): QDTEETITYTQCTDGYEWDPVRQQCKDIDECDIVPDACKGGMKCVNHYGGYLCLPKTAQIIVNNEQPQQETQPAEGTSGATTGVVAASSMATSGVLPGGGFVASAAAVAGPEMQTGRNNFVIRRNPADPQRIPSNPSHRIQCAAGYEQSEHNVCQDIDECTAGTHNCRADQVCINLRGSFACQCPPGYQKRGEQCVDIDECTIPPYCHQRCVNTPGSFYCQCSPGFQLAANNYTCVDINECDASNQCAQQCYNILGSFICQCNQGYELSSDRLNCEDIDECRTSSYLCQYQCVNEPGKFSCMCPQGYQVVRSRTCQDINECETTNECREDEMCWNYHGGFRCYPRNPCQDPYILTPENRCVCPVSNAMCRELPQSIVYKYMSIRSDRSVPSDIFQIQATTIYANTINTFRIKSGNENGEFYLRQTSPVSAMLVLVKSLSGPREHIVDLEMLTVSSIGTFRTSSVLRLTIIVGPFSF
Procedure: CNSI glioma cells were transfected with fibulin-3 cDNA (fib3-OE cells) or a control plasmid (control cells) and cultured for 24 h in serum-free conditions. Conditioned medium was collected and probed by Western blotting with anti-Fib3/911 (911), anti-Fib3/912 (912), or their respective preimmune sera (antibodies and sera were used at 1/5000 dilution).
Two rabbit polyclonal antibodies were commissioned against the 23-amino acid peptide sequence of fibulin-3 involved in Notch activation. The peptide was minimally modified to facilitate the formation of a disulfide bridge necessary to form a conformational, tri-dimensional epitope (FIG. 4). Antibodies against fibulin-3 (“anti-Fib3/911” and “anti-Fib3/912”) were purified by affinity chromatography, aliquoted, and prepared in phosphate-buffered saline (PBS) solution for all subsequent tests.
Purified human fibulin-3 (200 ng/lane, ORIGENE) was subjected to SDS-PAGE in reducing and non-reducing conditions and probed with affinity-purified mAb428.3C11 (0.4 to 20 μg/ml, diluted in PBS from a 2 mg/ml stock).
Concentrated, serum-free culture medium from HEK293 cells (1 mg/ml total protein) was probed with anti-human IgG secondary antibody (HRP conjugate) to detect the chains of antibody in reducing and non-reducing conditions. C) Concentrated medium from HEK293 cells (1 mg/ml total protein) was directly used to probe purified human fibulin-3 (resolved by SDS-PAGE in non-reducing conditions).

B1: mAb428.2: mouse monoclonal IgG1 kappa antibody against human fibulin-3 peptide SEQ ID NO:2; VH SEQ ID NO: 3, VL SEQ ID NO: 4 (antibody, V domains shown)
VH: QIQLVQSGPELKKPGETVKISCKASGYSFTTYGMSWVKQAPGKGLKWMGWINTYSGVPTYADDFKGRFAFFLETSASTAYLQINNLKNEDTATYFCARWVDYWGQGTTLTVSS
VL: DIKMTQSPSSMYASLGERVTITCKASQDIKSYLSWHQQKPWKSPKTLIYYATSLADGVPSRFSGSGSGQDYSLTISSLESDDTATYYCLQHGKSPYTFGGGTKLEIK
In the case of B1, the “cross-reactivity against fibulin-4” value (fibulin-4) is reported as “no cross-reactivity”, the “staining in normal brain” value (normal adult human brain) is reported as “without cross-reactivity against normal brain” and the “staining in normal brain” value (normal adult human brain; listed as mAb428.3C11) is reported as “complete absence of staining in normal tissue”. For the same molecule, the “effect on fibulin-3-induced Notch reporter activity” value [1] was “strong blocking effect”, the “detection of fibulin-3 by Western blotting” value (purified human fibulin-3; SDS-PAGE, reducing and/or non-reducing conditions) was “high sensitivity of the antibody towards fibulin-3” and the “detection of native fibulin-3 by dot-blotting” value (purified human fibulin-3; non-reduced fibulin-3 on nitrocellulose, scFv428.2 medium 1 mg/ml, mAb428.2 1 μg/ml) was “able to detect native fibulin-3 by dot-blotting”.
